B1: ILSVVNSQL (peptide)
peptide: ILSVVNSQL
notes: also called KIAA0226L-002
B2: FLWPKEVEL (peptide)
peptide: FLWPKEVEL
B3: STLDGSLHAV (peptide)
peptide: STLDGSLHAV
B4: SLLPLVWKI (peptide)
peptide: SLLPLVWKI
B5: ALVSGGVAQA (peptide)
peptide: ALVSGGVAQA
B6: SIGDIFLKY (peptide)
peptide: SIGDIFLKY
B7: GRADALRVL (peptide)
peptide: GRADALRVL
B8: KVLGKIEKV (peptide)
peptide: KVLGKIEKV
B9: GTFLEGVAK (peptide)
peptide: GTFLEGVAK
B10: YLVAHNLLL (peptide)
peptide: YLVAHNLLL
B11: YLTEVFLHVV (peptide)
peptide: YLTEVFLHVV
B12: AIWKELISL (peptide)
peptide: AIWKELISL
B13: SLWFKPEEL (peptide)
peptide: SLWFKPEEL
B14: ILLNTEDLASL (peptide)
peptide: ILLNTEDLASL
B15: SLLTQPIFL (peptide)
peptide: SLLTQPIFL
B16: LLDHLSFINKI (peptide)
peptide: LLDHLSFINKI
B17: RLLPKVQEV (peptide)
peptide: RLLPKVQEV
notes: also called ZNF-003
B18: LLRGPPVARA (peptide)
peptide: LLRGPPVARA
B19: SVAKTILKR (peptide)
peptide: SVAKTILKR
B20: IASAIVNEL (peptide)
peptide: IASAIVNEL
B21: FAWEPSFRDQV (peptide)
peptide: FAWEPSFRDQV
B22: VLLRVLIL (peptide)
peptide: VLLRVLIL
B23: VLGPGPPPL (peptide)
peptide: VLGPGPPPL
B24: KTLDVFNIIL (peptide)
peptide: KTLDVFNIIL
B25: GLMDGSPHFL (peptide)
peptide: GLMDGSPHFL
B26: PLWGKVFYL (peptide)
peptide: PLWGKVFYL
B27: GLSSSSYEL (peptide)
peptide: GLSSSSYEL
B28: HLYNNEEQV (peptide)
peptide: HLYNNEEQV
B29: GVIETVTSL (peptide)
peptide: GVIETVTSL
B30: EYALLYHTL (peptide)
peptide: EYALLYHTL
B31: TLDHKPVTV (peptide)
peptide: TLDHKPVTV
B32: FLIDTSASM (peptide)
peptide: FLIDTSASM
B33: IQADDFRTL (peptide)
peptide: IQADDFRTL
B34: GLLWQIIKV (peptide)
peptide: GLLWQIIKV
B35: LLYDGKLSSA (peptide)
peptide: LLYDGKLSSA
B36: FLGDYVENL (peptide)
peptide: FLGDYVENL
B37: VLLAAGPSAA (peptide)
peptide: VLLAAGPSAA
B38: HLPDFVKQL (peptide)
peptide: HLPDFVKQL
B39: VLFLGKLLV (peptide)
peptide: VLFLGKLLV
B40: SVDSAPAAV (peptide)
peptide: SVDSAPAAV
B41: VLISSTVRL (peptide)
peptide: VLISSTVRL
B42: GVLKVFLENV (peptide)
peptide: GVLKVFLENV
B43: GLIYEETRGV (peptide)
peptide: GLIYEETRGV
B44: KILDLTRVL (peptide)
peptide: KILDLTRVL
B45: ILDETLENV (peptide)
peptide: ILDETLENV
B46: ALDDSLTSL (peptide)
peptide: ALDDSLTSL
B47: YVLPKLYVKL (peptide)
peptide: YVLPKLYVKL
B48: SLYHRVLLY (peptide)
peptide: SLYHRVLLY
B49: MLSDLTLQL (peptide)
peptide: MLSDLTLQL
B50: ALSDETKNNWEV (peptide)
peptide: ALSDETKNNWEV
B51: KLYGIEIEV (peptide)
peptide: KLYGIEIEV
B52: AIFDFCPSV (peptide)
peptide: AIFDFCPSV
B53: SLVPLQILL (peptide)
peptide: SLVPLQILL
B54: GAVAEEVLSSI (peptide)
peptide: GAVAEEVLSSI
B55: AQTVVVIKA (peptide)
peptide: AQTVVVIKA
B56: SSLEPQIQPV (peptide)
peptide: SSLEPQIQPV
B57: TLSSERDFAL (peptide)
peptide: TLSSERDFAL

The target of one assay is T1, HLA-A*02 (human).
T1 construct: Peptide-receptive MHC monomer made by UV cleavage of a UV-sensitive ligand and captured on streptavidin plates; also called HLA-A*02 MHC class I molecule; peptide-receptive MHC
The assay can be described thus: UV-exchange ELISA (anti-b2m); yield 50%-75%. The text has this: (§1) Candidate peptides for T cell based therapies according to the present invention were further tested for their MHC binding capacity (affinity). The individual peptide-MHC complexes were produced by UV-ligand exchange, where a UV-sensitive peptide is cleaved upon UV-irradiation, and exchanged with the peptide of interest as analyzed. Only peptide candidates that can effectively bind and stabilize the peptide-receptive MHC molecules prevent dissociation of the MHC complexes. To determine the yield of the exchange reaction, an ELISA was performed based on the detection of the light chain (β2m) of stabilized MHC complexes. The assay was performed as generally described in Rodenko et al. (Rodenko et al., 2006).
(§2) 96 well MAXISorp plates (NUNC) were coated over night with 2 ug/ml streptavidin in PBS at room temperature, washed 4× and blocked for 1 h at 37° C. in 2% BSA containing blocking buffer. […] Peptide-MHC monomers of the UV-exchange reaction were diluted 100 fold in blocking buffer. Samples were incubated for 1 h at 37° C., washed four times, incubated with 2 ug/ml HRP conjugated anti-β2m for 1 h at 37° C., washed again and detected with TMB solution that is stopped with […]. Absorption was measured at 450 nm.
B1 yielded a peptide exchange yield of 50 to 75%.
On the same count and under the same terms, with B2 the figure was 50 to 75%; with B3, 50 to 75%.
Still for that read-out and setting: under B4 stands 50 to 75%; under B5, 50 to 75%; under B6, 50 to 75%.
The same measure, in the same setting: under B7 stands 50 to 75%; under B8, 50 to 75%.
Regarding B9, the peptide exchange yield was in the range of 50 to 75%.
As for B10, the peptide exchange yield is 50 to 75%.
Still for that read-out and setting: under B11 stands 50 to 75%.
On the same count and under the same terms, with B12 the figure was 50 to 75%; with B13, 50 to 75%; with B14, 50 to 75%.
Same read-out and setting: under B15 stands 50 to 75%.

A further assay deals with T1, HLA-A*02. The assay can be described thus: UV-exchange ELISA (anti-b2m); yield 20%-49%.
Description: as §1, §2
A general note: An ELISA detects its analyte on a solid surface through an enzyme-linked reagent.
The molecule B16 came in with a peptide exchange yield of 20 to 49%.
Same read-out and setting: under B17 stands 20 to 49%; under B18, 20 to 49%; under B19, 20 to 49%.
Still for that read-out and setting: under B20 stands 20 to 49%; under B21, 20 to 49%; under B22, 20 to 49%.
On the same count and under the same terms, with B23 the figure was 20 to 49%; with B24, 20 to 49%.
The molecule B25 registered a peptide exchange yield of 20 to 49%.
Same read-out and setting: under B26 stands 20 to 49%; under B27, 20 to 49%; under B28, 20 to 49%.
Regarding B29, the peptide exchange yield was 20 to 49%.
Same read-out and setting: under B30 stands 20 to 49%.
The same measure, in the same setting: under B31 stands 20 to 49%.
On the same count and under the same terms, under B32 stands 20 to 49%.
With B33, the peptide exchange yield was 20 to 49%.
B34 registered a peptide exchange yield of 20 to 49%.
The molecule B35 gave a peptide exchange yield of 20 to 49%.
On the same count and under the same terms, under B36 stands 20 to 49%; under B37, 20 to 49%; under B38, 20 to 49%.
For the molecule B39, the peptide exchange yield lay within 20 to 49%.
On the same count and under the same terms, with B40 the figure was 20 to 49%; with B41, 20 to 49%.
On the same count and under the same terms, under B42 stands 20 to 49%; under B43, 20 to 49%.
Same read-out and setting: under B44 stands 20 to 49%; under B45, 20 to 49%.
In the case of B46, the peptide exchange yield lay in the range of 20 to 49%.
Molecule B47 gave a peptide exchange yield of 20 to 49%.

For another assay, the target named is T1, HLA-A*02. The assay can be described thus: UV-exchange ELISA (anti-b2m); yield >=75%.
Description: as §1, §2
Consider B48, for which the peptide exchange yield was at least 75%.
Still for that read-out and setting: with B49 the figure was at least 75%.
Same read-out and setting: with B50 the figure was at least 75%; with B51, at least 75%; with B52, at least 75%.
The molecule B53 had a peptide exchange yield of at least 75%.

Another assay concerns the target T1, HLA-A*02. In words: UV-exchange ELISA (anti-b2m); yield <20%.
Description: as §1, §2
Consider B54, for which the peptide exchange yield is below 20%.
On the same count and under the same terms, under B55 stands below 20%; under B56, below 20%; under B57, below 20%.
